“And” between values parts separate entries of the source, which are not always exact repeats. Identical values can stand only once.
B1: 抗H7N9全人源单克隆抗体8D11 (antibody, V domains shown)
VH: QVQLVESGAEVKKPGASVKVSCKASGYIFFTSYDINWVRQATGQGLEWMGWMNPDSGDTGFAQKFQGRVTMTRNTSITTAYMELSSLTSEDTAVYYCATGNADCSGGSCYNWFDPWGQGTLVTVSS
VL: SSELTQDPAVSVALGQTVRITCQGDRLRSYTYASWYQQKPGQAPVLVIYGKNNRPSGIPDRFSGSSSGNTASLTITGAQAEDEADYYCNSRTSGYHLVFGGGTKLTVLV

How the values were obtained:
[1] = target: H7N9病毒的HA蛋白(购自ACROBiosystems) (H7N9 influenza virus); experiment: ELISA, negative control on coated HA
[2] = target: H7N9病毒的HA蛋白(购自ACROBiosystems) (H7N9 influenza virus)
[3] = target: H7N9病毒 A/Anhui/1/2013 (H7N9 influenza virus A/Anhui/1/2013); experiment: cell-based or functional assay
[4] = target: H7N9病毒的HA蛋白(购自ACROBiosystems) (H7N9 influenza virus); experiment: ELISA, supernatant of transfected 293F cells on coated HA

Molecule	450nm [1]	Kd [2]	IC50 (微量中和-ELISA, MDCK细胞) [3]	450nm [4]
阴性对照	0.0675 OD450 and 0.0554 OD450	–	–	–
B1	–	8.3 nM	0.89 µg/mL	0.956 OD450 and 0.981 OD450 and 0.742 OD450
